Article PMC11257983 (2024)

B1: Flag-CNK^2–549 [Drosophila] / GST-HYP [Drosophila] (parent complex)
chain 1: AYINIAEWTPDQVTDWIKGLDESMKGYLYEFSKQEIGGRALLNIRPYELENLGMLRIGHQEIVLEAVENLRNFHYHLKNDNLQFMALHVATAAKNLHRELARNHAESTKIDTRILHDITRTIATLKPLVGSLERTPFRKQEMYREYCGNVLKCGLELATIAHRDRFALQPVPAIRQSAERLENLANFVIQDISDPMVLQPASLNLVTLKKRESELGFNIESSYNGIHRVTDIKYNSPAHNSGKIEDGDEIVQINYQTVVGWQHRTVLEHLREALPDVVLTVKKRPKHTKMFGQIYMQPYRLPSKKRNMAARWAAQMPSPRAAFLTLDTEQLATGGTGSAVPDPSKSLSSEKREVLTKANPVSSASDSDSSCSDIPTPTDPKLAAREIRLYYPKPRALLQRRNTICGCEYLSLKNSDLVVPSWHERKPGIGSPTNCDPGSPSIRDKSISFGYGLEMAARPTTCIGIAGDTSTDKARRMFHEARKLKQLTEDSQREFLVDRYKPGVSKVVRFDAKEDYVMKNEKFICNVENTILETFEPIPFADEGDEDA
chain 2: MGEETINSTQNKTRTKTTRPKAVYLWTVSDVLKWYRRHCGEYTQYEQLFAQHDITGRALLRITDSSLQRMGVTDNRDREAIWREIVKQRLKTDIMEIRDMERLNIY

Variants of: B1
Assay: GST pull-down, immunoblot quantification; S2 cells; GST-HYP, V5-KSR, Myc-MEK co-expressed; anti-Flag (CNK) blot; parent: 1
chain 1 AYINIAEWTPDQVTDWIKGLDESMKGYLYEFSKQEIGGRALLNIRPYELENLGMLRIGHQEIVLEAVENLRNFHYHLKNDNLQFMALHVATAAKNLHRELARNHAESTKIDTRILHDITRTIATLKPLVGSLERTPFRKQEMYREYCGNVLKCGLELATIAHRDRFALQPVPAIRQSAERLENLANFVIQDIADPMVLQPASLNLVTLKKRESELGFNIESSYNGIHRVTDIKYNSPAHNSGKIEDGDEIVQINYQTVVGWQHRTVLEHLREALPDVVLTVKKRPKHTKMFGQIYMQPYRLPSKKRNMAARWAAQMPSPRAAFLTLDTEQLATGGTGSAVPDPSKSLSSEKREVLTKANPVSSASDSDSSCSDIPTPTDPKLAAREIRLYYPKPRALLQRRNTICGCEYLSLKNSDLVVPSWHERKPGIGSPTNCDPGSPSIRDKSISFGYGLEMAARPTTCIGIAGDTSTDKARRMFHEARKLKQLTEDSQREFLVDRYKPGVSKVVRFDAKEDYVMKNEKFICNVENTILETFEPIPFADEGDEDA [chain 1 S193A] gave a ratio to parent of 0.94.

Variants of: B1
Assay: GST pull-down, immunoblot quantification; S2 cells; only Flag-CNK2–549 and GST-HYP co-expressed; anti-Flag (CNK) blot; parent: 1
For chain 1 AYINIAEWTPDQVTDWIKGLDESMKGYLYEFSKQEIGGRALLNIRPYELENLGMLRIGHQEIVLEAVENLRNFHYHLKNDNLQFMALHVATAAKNLHRELARNHAESTKIDTRILHDITRTIATLKPLVGSLERTPFRKQEMYREYCGNVLKCGLELATIAHRDRFALQPVPAIRQSAERLENLANFVIQDIADPMVLQPASLNLVTLKKRESELGFNIESSYNGIHRVTDIKYNSPAHNSGKIEDGDEIVQINYQTVVGWQHRTVLEHLREALPDVVLTVKKRPKHTKMFGQIYMQPYRLPSKKRNMAARWAAQMPSPRAAFLTLDTEQLATGGTGSAVPDPSKSLSSEKREVLTKANPVSSASDSDSSCSDIPTPTDPKLAAREIRLYYPKPRALLQRRNTICGCEYLSLKNSDLVVPSWHERKPGIGSPTNCDPGSPSIRDKSISFGYGLEMAARPTTCIGIAGDTSTDKARRMFHEARKLKQLTEDSQREFLVDRYKPGVSKVVRFDAKEDYVMKNEKFICNVENTILETFEPIPFADEGDEDA [chain 1 S193A], the ratio to parent was 0.81.

Variants of: B1
Assay: GST pull-down, immunoblot quantification; S2 cells; GST-HYP + RRKM (Ha-RASV12, Pyo-RAF, V5-KSR, Myc-MEK) co-expressed; anti-Flag (CNK) blot; parent: 1
For chain 1 AYINIAEWTPDQVTDWIKGLDESMKGYLYEFSKQEIGGRALLNIRPYELENLGMLRIGHQEIVLEAVENLRNFHYHLKNDNLQFMALHVATAAKNLHRELARNHAESTKIDTRILHDITRTIATLKPLVGSLERTPFRKQEMYREYCGNVLKCGLELATIAHRDRFALQPVPAIRQSAERLENLANFVIQDIADPMVLQPASLNLVTLKKRESELGFNIESSYNGIHRVTDIKYNSPAHNSGKIEDGDEIVQINYQTVVGWQHRTVLEHLREALPDVVLTVKKRPKHTKMFGQIYMQPYRLPSKKRNMAARWAAQMPSPRAAFLTLDTEQLATGGTGSAVPDPSKSLSSEKREVLTKANPVSSASDSDSSCSDIPTPTDPKLAAREIRLYYPKPRALLQRRNTICGCEYLSLKNSDLVVPSWHERKPGIGSPTNCDPGSPSIRDKSISFGYGLEMAARPTTCIGIAGDTSTDKARRMFHEARKLKQLTEDSQREFLVDRYKPGVSKVVRFDAKEDYVMKNEKFICNVENTILETFEPIPFADEGDEDA [chain 1 S193A], the ratio to parent was 0.86.

Variants of: B1
Assay: GST pull-down, immunoblot quantification; S2 cells; only Flag-CNK2–549 and GST-HYP co-expressed; anti-Flag (CNK) blot; parent: 1
Remark: another data set of the same source
With chain 1 AYINIAEWTPDQVTDWIKGLDESMKGYLYEFSKQEIGGRALLNIRPYELENLGMLRIGHQEIVLEAVENLRNFHRHLKNDNLQFMALHVATAAKNLHRELARNHAESTKIDTRILHDITRTIATLKPLVGSLERTPFRKQEMYREYCGNVLKCGLELATIAHRDRFALQPVPAIRQSAERLENLANFVIQDISDPMVLQPASLNLVTLKKRESELGFNIESSYNGIHRVTDIKYNSPAHNSGKIEDGDEIVQINYQTVVGWQHRTVLEHLREALPDVVLTVKKRPKHTKMFGQIYMQPYRLPSKKRNMAARWAAQMPSPRAAFLTLDTEQLATGGTGSAVPDPSKSLSSEKREVLTKANPVSSASDSDSSCSDIPTPTDPKLAAREIRLYYPKPRALLQRRNTICGCEYLSLKNSDLVVPSWHERKPGIGSPTNCDPGSPSIRDKSISFGYGLEMAARPTTCIGIAGDTSTDKARRMFHEARKLKQLTEDSQREFLVDRYKPGVSKVVRFDAKEDYVMKNEKFICNVENTILETFEPIPFADEGDEDA [chain 1 Y75R] the ratio to parent was 0.93.

Variants of: B1
Assay: GST pull-down, immunoblot quantification; S2 cells; Flag-CNK2–549, V5-KSR, Myc-MEK, GST-HYP co-expressed; anti-CNK blot; parent: 1
chain 1 AYINIAEWTPDQVTDWIKGLDESMKGYLYEFSKQEIGGRALLNIRPYELENLGMLRIGHQEIVLEAVENLRNFHRHLKNDNLQFMALHVATAAKNLHRELARNHAESTKIDTRILHDITRTIATLKPLVGSLERTPFRKQEMYREYCGNVLKCGLELATIAHRDRFALQPVPAIRQSAERLENLANFVIQDISDPMVLQPASLNLVTLKKRESELGFNIESSYNGIHRVTDIKYNSPAHNSGKIEDGDEIVQINYQTVVGWQHRTVLEHLREALPDVVLTVKKRPKHTKMFGQIYMQPYRLPSKKRNMAARWAAQMPSPRAAFLTLDTEQLATGGTGSAVPDPSKSLSSEKREVLTKANPVSSASDSDSSCSDIPTPTDPKLAAREIRLYYPKPRALLQRRNTICGCEYLSLKNSDLVVPSWHERKPGIGSPTNCDPGSPSIRDKSISFGYGLEMAARPTTCIGIAGDTSTDKARRMFHEARKLKQLTEDSQREFLVDRYKPGVSKVVRFDAKEDYVMKNEKFICNVENTILETFEPIPFADEGDEDA [chain 1 Y75R] was tested, and the ratio to parent was 0.73.
